As a reminder, the Kd is the concentration at which binding is half-saturated.

The target in the assay is HIV-1 envelope glycoprotein gp120 (YU2) (HIV-1 (YU2)) (UniProt P35961). The experiment in a line: SPR; BIAcore 3000, CM4 chip; gp120YU2 amine-coupled (514 RU for the Lg-CRD chip, 838 RU for the Lg-ECD chip), BSA control flow cell; Langerin injected at 20 µl/min; running buffer 150 mM NaCl, 25 mM Tris pH 7.8, 4 mM CaCl2, 0.005% P20; regeneration with 50 mM EDTA; 1:1 Langmuir fit for Lg-CRD, EC50 from titration for Lg-ECD. (In SPR one partner is held on a chip, and binding of the other changes the refractive index at the surface.)

As to “Langerin carbohydrate-recognition domain (CRD) (domain or fragment)”, the equilibrium dissociation constant (Kd) turned out to be 25 µM.

The record behind these values is publication PMC3511376.
